The text below walks through data of the NTF2 design screens of Basanta et al. (2020).

A short description of this series: protease stability score; higher = more stable; yeast display proteolysis, trypsin and chymotrypsin.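 Also: relative to predicted unfolded state with 0 unfolded-like and 1 meaning tenfold more protease.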
Sequence “DEEQTQMEETVNVVLSAMRTGDEETSKKLADPNVKIRINGREFHGRDFYAHVILMFGIDHIEMRIERYEFQGEKLILRGRLRLEFNGKEETSDVIEIWWKVDGRWHLDNYYEN” displayed a protease stability score of 1.37. The sequence “DEERDEARRVLEIFIKVFRTGDWHILHELADPHVRMDVNGREFIGREDYVKFFRYEMEIFGVERIDIKIHDVHVYNGRIEVHTRQNINGKERDTHLEIHKINGQWHLRDVRIH” had a protease stability score of 1.44.

“DEERDETRELLRRLQELLRTGDEEEIRKLADPHVRSDVNGREYHGRDWATHLIMRFDHLDIERIRIFDGRIETDFRVEIGDKTFQTRMHVRKIDGRWNIKEIKII” registered a protease stability score of 1.55. The figure for “DEERDHLLEISQRIIHSWVTGDWKLFARLIDPHARLIFHFENVDLHYHGREQVVTFIIEMRIQHIDIRRYTVQGNKVHIDGHQKIEIGDKSIRTDSEMNSIIVNGKLHETFLIFK” is 1.45; for “DEEREDIEKVTHILSEIWETGDEHRLHRMLDPNTKVVIDGVEIHGRELIIRFRKELRHKLGLDRIEVDIDHIEVQGDKAISDTSIDYNGREFKVINTVHKYNGRWLVHRIIHE” it is 0.815; for “DEEREDVETHLRVLYDLILTGDEEDIRNLLDPHVRLDFNGKDIHGMERVSHHMRELRIERLEIKRWDVVNGRVHMDLHIVFHYGDKRRDTEVHVIMLKIDGRWHLESIHIK” it is 2.21. “DEEREELHRHIKILNKAWTTGDERLLYELMDPHAKINIDGVDFIGREEATEEYHHRWRHLGVDHFEVRFTEIHDIDGRLHMQTKLNLIVNGQREERHTRVHVRKINGRWLVHNLEIR” showed a protease stability score of 0.125. Sequence “DEEREFSERAIEMSLEDWLTGDEHRMHRMLDPHVRLDIDGRDIIGRERMTKIIFEINKTLGVDHVEFHDHEIQGDKVHSHLDVHINGRRLRITLHLYKIDGRWQIREVKVV” displayed a protease stability score of 1.13.

In turn, “DEEREHSEEALLLLLHLIMTGDEEELIKNVDPNARITQGDKEFHGREVVIKHLFELMHRFGVKHFTVDHVEIFNGRLFIRFTLHFNGRKIDEHLILVKINGRWLLKSMEIK” gave a protease stability score of 2.21. As for “DEEREIIETFFRESLEVIKTGDWKTFDDLLDPRARLNIGDKDYHGRHEIVRQWHKQFKDLGVDHIENKDLRIFDGKIETHFDLEVGDKRIHLEFHATKIDGRWLFHEIRVQ”, the protease stability score amounted to 1.97. For “DEEREKSELAIKIMKHVWETGDETLKSELFDPNARIHIDGKEIVGREEIEDQLRHIRMHITMFDINSTKFVDGRLEVYLNRRVRLFFDGREIEEEQHIHVVLLKINGRWQLQELEVT”, the protease stability score worked out at 1.36. The sequence “DEEREKVIRFLERFQESSRTGDEETLHRLADPNVKLTVDGRELHGREVMVRYAIEWRIEDVEPKRYTEQGDKLILHVRIHTTIGDKHEVREVDLFVRKIDGRWIMEEFRVR” yielded a protease stability score of 0.96.

Sequence “DEERELAKWAEEMLRRRFETGNERFWEELADPNTRSDINGVELIGRETVVHFLREEQRHMGVDHTDVKHTNVELQGDKVIVRMDVELHFDGVTVRSTLSYTSIKFNGRWILHSIEHHIH” gave a protease stability score of 1.13.

Sequence “DEERELLDHLAKFILSVVRTGDWESMLRMADPNARIQIDGREYHGMDFFIRHWWELGIDHERIDKIDIQGDKLFIHRTLEYDGQEIDSELYIIVINGKLKSIDIRIR” yielded a protease stability score of 0.764. As for “DEERELLKFFLKAWSKALVTGDEQTLLDLVDPNARNVIGDKDLIGREFLEKVLREMRITEVHIEDIKFQGEFVTSDLRMRVRQGDKEFDIRVRLVVYKYDGRWVFKTFHME”, the protease stability score was 2.23. “DEERELLKRFIELWFHAIKTGDEDQLIRLLDPHVRIDINGVDIHGMEKYIHEHLRLERERGFEIRDFKIKHIEIQGEKAHVDTRLSGMVDGRHVDVRNRFIIYKFNGRWIFHSFHVD” gave a protease stability score of 1.24.

As for “DEERELTEKLTRKLIHNWLTGDPEAIRRMLDPNVRVIINGQELHGRERFHEHMHHLLRHMRIDHIDIKDWKFQGEKFHIDLHVHGTIDGVHFIHRTESSVIIVNGKIHQMHVHEI”, the protease stability score is 1.41. With “DEERELYKRHWDRLNRAIHTGDEEEVRRLADPDYKIRIGDKTLHGREDIKKFLEHIRISVESFEIKDMHDIDGVIEVDGKVELRLVVDGRTFRIETRVVYYILKVNGRWLMHSEIYH”, the protease stability score was found to be 0.82. The sequence “DEERENAERMLKAWVEILETGDEHRISRLLDPNVQFQIGDKHLHGREDVLRHLSEMIKKVKNLTISIHSINIQGDKVHVDGHIHVNGVDHKNDLILLKVNGRWFVTSLKIE” displayed a protease stability score of 1.78. The figure for “DEERENIEKALRLLEHFNKTGNEEDINRLMDPHARSHINGKDVHGREEVVRMLRELGVERIEVEDLEIERSKQVDGRIEIHVHTVVNFNGRHTEFRVEIIAVKVNGKWIMRSVIFE” is 1.56. In turn, “DEERERREDETRLLLEILITGDEDRFRQLADPHMKLHIGDKDFIGREVAVKFLRDLWREFGIKHILFEDSTIVGDKLEHRMHLEVNGKRRRMELENVIIDGRVHSMHIRIH” displayed a protease stability score of 1.39. The sequence “DEERHDAEEASREIMRSYETGDETEYLNLLDPHARMTVGDKEFHGREDILRWWHELNEKLGVDRIHLHLEHIRVINGVVESHVRLNVNGREHRVELLVYKVNGRWLIREMHFR” returned a protease stability score of 1.68.

Turning to “DEERHEALRVAKEFMHNFWTGNEELNRHLIDPNVRLTIEVGDKRIDRVGRESFSHTLHRWREHLRIEDLDETRIDVQGDKAVLHTIMHIKIGDKHITVEVDINILVVDGRLRHIRVIVR”, the protease stability score stood at 2.01. Turning to “DEERHHFERVYEELMHVRRTGDWERYWELLDPDARLEINGQKYHGREDVLKAVTDIMRHWREKEFDFKRMDVQGDKVKIEGRVNGNFNGRDINTDVEIQITVVDGRLRHERFIIK”, the protease stability score turned out to be 1.71. For “DEERHILEELMRILTEAMHTGDEHLLEWLLDPHMIIEIGDKTLHGRDQILRVVEEIRRHIRRIEVKHSHVQGDKIRIEGHMHSETEFNGRRFSFTVYVEIIIVKINGVWRIRSLHIH”, the protease stability score was 1.39.

As to “DEERHYVEHIIKLLSRHIYTGDFEAFEELLDPNALIIIGDKHLVGREDWRRLVHEIRIRNEHVEIEDVNVYDGRAESKVTFHGRREYDGRTTETNLDVNYFLLKINGRWVFESLEIR”, the protease stability score worked out at 1.67.

Sequence “DEERKDFEEALKKWLESMETGDEKHLEELFDPNAKFLIDGVELHGREVFKEFLRRFKNVRVEELHLDHLEVQGDKVITHVTFRGTFNGKHENVHRILIAVKFDGRWFVRSIEVH” registered a protease stability score of 2.34. The figure for “DEERKDTKEAIERVRDTWRTGDEQDIFNNVDPNTRMIVGDKHHHGMEDVARLAFEWRVHDFRFHEVHSSEDHVILDGRVDGEINGRRINTKMILILLKIDGRWHIESIQYI” is 0.805; for “DEERKEFEEVFRQWIHALRTGDEDSELRNLDPNARIVVGDKEVHGREESERYLRETLHRADHMDFELHRLDVQGDKVHIDGTMILVVNGQEIRYRIHFISVKIDGRWLLRSVIIH” it is 1.86; for “DEERKELEEALRELKHSWETGDWRSLSEMADPNVLLKQGDFEYHGRELFLEFMRHLIEHLGIKHVEIRDMKIFENRVDMDVIIRFNGQTTRIQIILVKFNGRWFIKSVIIR” it is 2.02. The sequence “DEERKESQKALELMLELFQTGDEEELSKFADPHVRLEFRVGDKRFEIHGREEVSRFFHELIWRIKNLRLTRHNDEVQGEKVIIHFELRQGDKRSEINIIAIKINGRWFIKHETVILL” gave a protease stability score of 1.62.

“DEERKETEEATRQDIHDFRTGDEKSFDEFFDPNVRLDINGVRVHGRELASKWFRDFFRELGVKHSEIEHREIQGEKAIVNEDVRVGDKRVEVILVYLKINGRWEITTVTLRHE” yielded a protease stability score of 1.05. “DEERKEYEDALTLFIEYLLTGDFERLEHLADPTTRLIVNGQEFHGRELVMRQLLEIRFHDHKLHDYKVVNGVAILDTRDRGIINGQETIFKTHIVLQKIDGRWVLRRYEIR” returned a protease stability score of 1.38. For the sequence “DEERKFLKKMHEILDKSERTGNEEDIMRLVDPEVRLTVGDKELHGWSAMHEYFKRWIDKFPGVRVHFELNDITIVDGRILNIVHTKFEFDGREFQLTATIFAHKYDGRWTLTSMRYE”, the protease stability score came out at 1.09. As for “DEERKFWEEVMRLMREAFETGDEHLIERMADPHVRINIIVDGREIEFHGWEILVDLMKFVKGMQFTLKDSDIINGVLKIDGKTRQGDKITDVEIEFHVVNGRVKEIHVHIL”, the protease stability score is 2.48. “DEERKFWHELAELLFHIHLTGDEDMLRHLLDPHVRSDINGVELHGREQAAEHFHKLMKTLGVKHIHHKRMHTIGDKTIIHGESEVDGRILHVHNHFWVVNGKVEEVKMHIE”: the protease stability score amounted to 0.495. The sequence “DEERKHSEDLKDMHLKSMLTGDEEFISHLADPNVRIVFNGRDLHGRELLHEILKRINEELGVSNIEVRLHHIEIVGEWVHIHGRLHWNGRTSRIHLLLFKIDGQWNIKSIHIEIE” had a protease stability score of 1.22. “DEERKIAEKFAELYQHWEHTGNEDEMRSFFDPNYRLFVGEKEFVGRKTRSRWHREYIEKLGVDHVEIQDYRVQGNFVESDLVLRFNGREVKTEIRINVIDGRIKEVHIITH” showed a protease stability score of 0.198. The figure for “DEERKIVEKWANEFLQAQITGDEDWFREYADPTTRYNLHIGDYDLHLHGRELVLTFLHEILRKFKNIKIEIKRRNIQGEKTDIDGVENYNGVEHRVRIHLVVINGQLKSYTIKEH” is 0.604. The figure for “DEERKIVLESVRLWLDEWETGDESALEKLMDPNVRVIIGDKTVHGREQMIKFLREWLTRYDHLEIKLRDIKVIGDKIHVESEFRYHIGDKELSHRTNVVLKIVDGKLKSVRVDFE” is 1.93. The sequence “DEERKLATELFKWLIDLYLTGDEETFEKLADPHYLSDVNGRNIHGMELISHIWREEIEKYGWEIHIKIRHIELQGDKSKSETEIHNNYDGRRIVFETRIIVRIVNGRIKSIEVRFR” displayed a protease stability score of 1.28.

“DEERKMYTYAHKLLKTSHDTGNEDDLTNLVDPNVRIDINGRDIHGWDFWHEMMTKLGVNVFETKHVELQGNKLHIDGTLHVDGRTHRVTINNIKIDGRWIIKHVHIE” gave a protease stability score of -0.3. Sequence “DEERKRSEELMKLEIHVFETGDWEWYREMADPNTRMHIDGKDFHGREEIYKFLHEHHLRFKNIKIHFEHIELQGEYVHNDVIIHVNGVDLIAHIIIVVVNGRVTHSEFQLE” came in with a protease stability score of 1.17.

As for “DEERKSTELALKHWHESMRTGDEHDTRRMMDPNVRVEIGDKTYVGREDVLEFMHRLGANHVEHFEIEDWKIVNGKVVMHGHSRVRIGDFEANTEVIIFSQKFNGRWFLESVIIV”, the protease stability score was 0.656. The sequence “DEERKWTKEALDKLLRVIATGDEDFINQNADPRVRLEINGVEIHGRELWHKILKDHSERMGVKHTHLESHDEFNGVITIHMRLFVGDKETRIEIINLKVDGKWIIKSLRIE” yielded a protease stability score of 1.22. Regarding “DEERQESEEALRHSMELWATGDFESLSRNVDPNVRVEIGDKTFHGWEIAHELFHKIKNLTVHLEDHEIQGEKVTIHGVLNFNGKREHVRLYSKKVNGRWILEKVQVG”, the protease stability score turned out to be 2.17.

“DEERQRAHKWMHDWIKAYLTGDEEHQNQMLDPNMRIEYGDKTHHGRDILIEIFREELRQVDHIEIRIRHIDNFEGRVRTDGELHVKINGRREHYDIILEYDVVNGKLKIERWDIR”: the protease stability score was 1.45.
